T1: CD20 peptide on HLA-A*02:01 (human)
T1 peptide: SLFLGILSV

B1: TCR of SEQ ID NOs 181 and 155 (CDR3 alpha and CDR3 beta) (TCR)
alpha TRAV24 J-28 CDR3: AFMPGAGSYQLT
beta TRBV4-2 J2-7 CDR3: ASSQGLTYEQY
B2: TCR of SEQ ID NOs 179 and 153 (CDR3 alpha and CDR3 beta) (TCR)
alpha TRAV38-2/DV8 J-43 CDR3: AYASFDMR
beta TRBV13 J2-3 CDR3: ASSLGSANTQY
B3: TCR of SEQ ID NOs 177 and 150 (CDR3 alpha and CDR3 beta) (TCR)
alpha TRAV30 J-57 CDR3: GTQGGSEKLV
beta TRBV19 J2-7 CDR3: ATAPGLSYEQY
B4: TCR of SEQ ID NOs 175 and 148 (CDR3 alpha and CDR3 beta) (TCR)
alpha TRAV12-2 J-33 CDR3: AGIMDSNY
beta TRBV4-2 J2-7 CDR3: ASSHGNGYEQY
B5: TCR of SEQ ID NOs 180 and 154 (CDR3 alpha and CDR3 beta) (TCR)
alpha TRAV5 J-23 CDR3: AEWGQGGKLI
beta TRBV12-4 J2-7 CDR3: ASSPGLTYEQY

Target: T1, CD20 peptide on HLA-A*02:01
Experiment: multimer staining

Binding result, recognises:
B1
B2
B3
B4
B5
